Measurements reported in paper PMC7801515.

Assays:
Assay in all cases: flow cytometry on cells
[1] = biological target: SARS-CoV-2 S glycoprotein Y473A, full-length, cell surface-expressed (SARS-CoV-2) (UniProt P0DTC2)
[2] = biological target: SARS-CoV-2 S glycoprotein T415A, full-length, cell surface-expressed (SARS-CoV-2) (UniProt P0DTC2)
[3] = biological target: SARS-CoV-2 S glycoprotein Y421A, full-length, cell surface-expressed (SARS-CoV-2) (UniProt P0DTC2)
[4] = biological target: SARS-CoV-2 S glycoprotein R457A, full-length, cell surface-expressed (SARS-CoV-2) (UniProt P0DTC2)

Measured: percent reduction in binding (MFI relative to wild type)

P2C-1F11 monoclonal antibody
> 50%: all assays above
